Measured values: patent publication US20240132581A1 (BEIJING WISDOMAB BIOTECHNOLOGY, published 2024)

B2: hTSLP1-m-mFc (Fc fusion)
chain: YDFTNCDFEKIKAAYLSTISKDLITYMSGTKSTEFNNTVSCSNRPHCLTEIQSLTFNPTAGCASLAKEMFAMKTKAALAIWCPGYSETQINATQAMKKVTTNKCLEQVSQLQGLWRRFNRPLLKQQPRGPTIKPCPPCKCPAPNLLGGPSVFIFPPKIKDVLMISLSPIVTCVVVDVSEDDPDVQISWFVNNVEVHTAQTQTHREDYNSTLRVVSALPIQHQDWMSGKEFKCKVNNKDLPAPIERTISKPKGSVRAPQVYVLPPPEEEMTKKQVTLTCMVTDFMPEDIYVEWTNNGKTELNYKNTEPVLDSDGSYFMYSKLRVEKKNWVERNSYSCSVVHEGLHNHHTTKSFSRTPGK
notes: also called recombinant protein hTSLP1-m-mFc

How the values were obtained:
hTSLP1-m-mFc [1] = biological target: B2; assay: SPR (Biacore T200): hTSLP1-m-mFc captured (about 80 RU) by anti-mFc antibody on CM5, antibody at 50 µg/mL [continued) E]
[2] = biological target: T1, hTSLP:hTSLPR complex (hTSLP1-m-mFc with hTSLPR-ECD bound, formed on the chip) (human (Homo sapiens), UniProt Q9HC73 23-231); assay: SPR (Biacore T200): chip surface with hTSLP1-m-mFc captured by anti-mFc antibody and loaded with hTSLPR-ECD, antibody at 50 µg/mL injected before hIL-7Rα-ECD [continued) D]
T1 construct: also called TSLP:TSLPR complex

[3] = biological target: cynomolgus monkey TSLP (mfTSLP) (cynomolgus monkey (Macaca fascicularis)); assay: SPR Biacore X100 as in Example 3.1, antibody captured, mfTSLP as analyte
[4] = biological target: T2, extracellular domain of human TSLP receptor (hTSLPR-ECD) (human (Homo sapiens), UniProt Q9HC73 23-231); assay: SPR (Biacore T200): hTSLP1-m-mFc captured (about 80 RU) by anti-mFc antibody on CM5, buffer then hTSLPR-ECD at 100 µg/mL
T2 sequence: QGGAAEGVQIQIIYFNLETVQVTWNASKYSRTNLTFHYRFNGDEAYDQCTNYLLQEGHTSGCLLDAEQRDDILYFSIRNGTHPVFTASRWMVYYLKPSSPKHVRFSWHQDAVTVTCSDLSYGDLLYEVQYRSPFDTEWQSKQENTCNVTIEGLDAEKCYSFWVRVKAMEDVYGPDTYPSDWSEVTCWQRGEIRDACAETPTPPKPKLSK

[5] = biological target: T1, hTSLP:hTSLPR complex (hTSLP1-m-mFc with …); assay: SPR (Biacore T200): chip surface with hTSLP1-m-mFc captured by anti-mFc antibody and loaded with hTSLPR-ECD, antibody at 50 µg/mL injected before hIL-7Rα-ECD [continued) B]
hTSLP1-m-mFc [6] = biological target: B2; assay: SPR (Biacore T200): hTSLP1-m-mFc captured (about 80 RU) by anti-mFc antibody on CM5, antibody at 50 µg/mL [continued) C]
hTSLP1-m-mFc [7] = biological target: B2; assay: SPR (Biacore T200): hTSLP1-m-mFc captured (about 80 RU) by anti-mFc antibody on CM5, antibody at 50 µg/mL [continued) D]
[8] = biological target: T1, hTSLP:hTSLPR complex (hTSLP1-m-mFc with …); assay: SPR (Biacore T200): chip surface with hTSLP1-m-mFc captured by anti-mFc antibody and loaded with hTSLPR-ECD, antibody at 50 µg/mL injected before hIL-7Rα-ECD [continued) C]

B1: H1A10×H3B10-M1+L3E8-M7 BsAb (anti-human TSLP bispecific antibody) (bispecific antibody, human IgG1, kappa)
heavy 1: QVQLVQSGAEVKKPGASVKVSCKASGYAFSNYWMNWVRQAPGQGLEWMGQIFPGDSDTDYDQKFQGRVTMTRDTSTSTVYMELSSLRSEDTAVYYCARAGYYRGYYAMDYWGQGTTVTVSSASTKGPSVFPLAPSSKSTSGGTAALGCLVKDYFPEPVTVSWNSGALTSGVHTFPAVLQSSGLYSLSSVVTVPSSSLGTQTYICNVNHKPSNTKVDKRVEPKSCDKTHTCPPCPAPEFEGGPSVFLFPPKPKDTLMISRTPEVTCVVVDVSHEDPEVKFNWYVDGVEVHNAKTKPREEQYNSTYRVVSVLTVLHQDWLNGKEYKCKVSNKALPASIEKTISKAKGQPREPQVYTLPPCREEMTKNQVSLWCLVKGFYPSDIAVEWESNGQPENNYKTTPPVLDSDGSFFLYSKLTVDKSRWQQGNVFSCSVMHEALHNHYTQKSLSLSPGK
heavy 2: QVTLKESGPVLVKPTETLTLTCTVSGFSLSSYDISWIRQPPGKALEWLGVIWSEGGTSYSTSLKSRLTISKDTSKSQVVLTMTNMDPVDTATYYCARDSDDGYLNWGQGTLVTVSSASTKGPSVFPLAPSSKSTSEGTAALGCLVKDYFPEPVTVSWNSGALTSGVHTFPAVLQSSGLYSLSSVVTVPSSSLGTQTYICNVDHKPSNTKVDKTVEPKSCDKTHTCPPCPAPEFEGGPSVFLFPPKPKDTLMISRTPEVTCVVVDVSQEDPEVQFNWYVDGVEVHNAKTKPREEQYNSTYRVVSVLTVLHQDWLNGKEYKCKVSNKALPASIEKTISKAKGQPREPQVCTLPPSQEEMTKNQVSLSCAVKGFYPSDIAVEWESNGQPENNYKTTPPVLDSDGSFFLVSKLTVDKSRWQEGNVFSCSVMHEALHNHYTQKSLSLSPGK
light: EIVMTQSPATLSVSPGERATLSCSVSSSISSSNLHWYQQKPGQAPRPWIYGTSNLASGIPARFSGSGSGTEFTLTISSVQAEDFAVYYCQQWSSYPLTFGQGTKLEIKRTVAAPSVFIFPPSDEQLKSGTASVVCLLNNFYPREAKVQWKVDNALQSGNSQESVTEQDSKDSTYSLSSTLTLSKADYEKHKVYACEVTHQGLSSPVTKSFNRGEC
notes: also called bispecific antibody H1A10×H3B10-M1+L3E8-M7; bispecific antibody H1A10×H3B10-M1
**Q.** What does the source list for B1?
**A.** binding result (hTSLP1-m-mFc [1]): binds; binding result [2]: binds; Kd [3]: 2.75 nM

**Q.** Does B2 bind [4]?
**A.** binds

B3: H3B10-M1+L3E8-M7 (humanized monoclonal antibody) (antibody, V domains shown)
VH: QVTLKESGPVLVKPTETLTLTCTVSGFSLSSYDISWIRQPPGKALEWLGVIWSEGGTSYSTSLKSRLTISKDTSKSQVVLTMTNMDPVDTATYYCARDSDDGYLNWGQGTLVTVSS
VL: EIVMTQSPATLSVSPGERATLSCSVSSSISSSNLHWYQQKPGQAPRPWIYGTSNLASGIPARFSGSGSGTEFTLTISSVQAEDFAVYYCQQWSSYPLTFGQGTKLEIK
notes: Expressed as a whole antibody
**Q.** Does B3 bind [5]?
**A.** binds

**Q.** Does B3 bind (hTSLP1-m-mFc [6])?
**A.** binds

B4: H1A10+L3E8-M7 (humanized monoclonal antibody) (antibody, V domains shown)
VH: QVQLVQSGAEVKKPGASVKVSCKASGYAFSNYWMNWVRQAPGQGLEWMGQIFPGDSDTDYDQKFQGRVTMTRDTSTSTVYMELSSLRSEDTAVYYCARAGYYRGYYAMDYWGQGTTVTVSS
VL: EIVMTQSPATLSVSPGERATLSCSVSSSISSSNLHWYQQKPGQAPRPWIYGTSNLASGIPARFSGSGSGTEFTLTISSVQAEDFAVYYCQQWSSYPLTFGQGTKLEIK
notes: Expressed as a whole antibody
**Q.** Does B4 bind (hTSLP1-m-mFc [7])?
**A.** binds

**Q.** Does B4 bind [8]?
**A.** binds
